Assay results as given in article PMC2859980.
Substitutions are numbered along the chain they refer to. Numbers in names are those of the source.

Experiments:
[1] = T cell IFN-γ ELISA after acid stripping and re-expression; conditions: glycan gained; control: same cells without z-vad-fmk
[2] = cytosolic fraction SDS-PAGE, anti-flag immunoblot; conditions: glycan gained; control: untreated (cycloheximide only)

B1: tyrosinase: z-vad-fmk, R402Q tyrosinase cells (protein)
parent chain: MLLAVLYCLLWSFQTSAGHFPRACVSSKNLMEKECCPPWSGDRSPCGQLSGRGSCQNILLSNAPLGPQFPFTGVDDRESWPSVFYNRTCQCSGNFMGFNCGNCKFGFWGPNCTERRLLVRRNIFDLSAPEKDKFFAYLTLAKHTISSDYVIPIGTYGQMKNGSTPMFNDINIYDLFVWMHYYVSMDALLGGSEIWRDIDFAHEAPAFLPWHRLFLLRWEQEIQKLTGDENFTIPYWDWRDAEKCDICTDEYMGGQHPTNPNLLSPASFFSSWQIVCSRLEEYNSHQSLCNGTPEGPLRRNPGNHDKSRTPRLPSSADVEFCLSLTQYESGSMDKAANFSFRNTLEGFASPLTGIADASQSSMHNALHIYMNGTMSQVQGSANDPIFLLHHAFVDSIFEQWLQRHRPLQEVYPEANAPIGHNRESYMVPFIPLYRNGDFFISSKDLGYDYSYLQDSDPDSFQDYIKSYLEQASRIWSWLLGAAMVGAVLTALLAGLVSLLCRHKRKQLPEEKQPLLMEKEDYHSLYQSHL
- other: MHC class I epitope presentation [1]: decreases

B2: tyrosinase: z-vad-fmk, N371D R402Q tyrosinase cells (protein)
parent chain: B1 parent chain with N371D
- other: MHC class I epitope presentation [1]: no change

B3: tyrosinase: z-vad-fmk (protein)
parent chain: B1 parent chain with Q402R
- degradation_or_half_life [2]: no change
